From the supplement of paper PMC10567573

B1: C9orf9 (parent)
chain: LTKASLKPRGCSKPPWRPPGGKL

Variants of: B1
Assay: protein stability index of a GFP-peptide fusion (GPS, HEK-293T) (PSI 1-6); higher = more stable
Details: c terminus: native
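Note: lentivirally expressed fusions sorted by FACS into six bins by GFP to DsRed ratio, PSI derived from sequencing read proportions per bin multiplied by bin number.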

Protein stability index: each site, then its substitutions
L6: F 2.35; H 1.89; I 1.37; P 1.9; Q 4.53; R 2.17; S 2.47; T 1.87; Y 2.04
K7: A 2.72; C 1.68; E 1.51; F 1.78; G 1.51; H 2.31; I 1.56; L 1.69; M 2.66; N 2.32; S 1.53; T 2.25; V 2.25
P8: A 3.56; F 2.51; H 1.65; L 2.77; M 2.53; Q 4.76; W 4.77; Y 2.15
R9: A 1.7; C 3.36; E 1.9; F 1.15; G 1.37; H 1.35; I 1.85; L 2.96; M 2.33; N 2.07; P 1.34; Q 2.68; S 1.95; T 1.45; V 2.91; W 2.31; Y 3.3
G10: A 2.74; C 1.97; D 2.36; E 2.18; F 1.91; H 2.29; I 2.47; K 2.43; L 2.96; M 2.19; N 2.06; P 2.24; Q 1.88; R 3.37; S 2.7; T 2.5; V 2.19; W 2.02; Y 2.25
C11: D 1.76; G 2.13; H 3.08; I 2.1; L 2.39; M 1.71; N 1.58; P 1.65; Q 1.54; S 2; V 2.1; W 2.1; Y 1.27
S12: A 2.42; C 1.49; E 2.02; F 1.3; G 1.99; H 1.53; I 2.3; L 1.66; M 5.53; N 2.05; P 1.48; R 1.34; T 3.8; V 2.52; W 3.5
K13: C 2.9; D 3.65; E 3.46; G 2.78; I 2.1; M 2.87; Q 2.3; R 1.49; S 2.62
P14: A 1.54; L 2.24; S 1.38; V 2.36; W 1.94
P15: D 3.75; E 3.93; G 2.02; H 2.18; I 2.36; L 3.21; M 1.78; N 1.77; Q 2.77; R 2.34; T 3.08; V 2.02; W 1.16; Y 2.73
W16: E 2.19; F 2.03; G 2.29; I 1.87; V 3.43; Y 2.25
R17: A 3.53; D 3.87; F 3.37; K 3.26; L 3.69; M 3.49; N 4.2; P 2.71; Q 4.16; S 4.71; V 3.35; W 3.47
P18: H 3.78; I 2.18; K 2.85; L 1.32; M 3.68; N 2.93; Q 2.26; R 2.46; W 2.9; Y 2.86
P19: C 2.91; D 4.43; E 4.05; F 1.69; G 3.44; H 2.23; I 1.24; L 3.21; M 3.15; N 4.1; R 2.6; S 3.87; T 3.72; V 1.78; Y 1.22
G20: C 2.91; D 4.64; F 3.03; H 3.77; I 2.42; K 3.36; M 2.13; N 2.27; R 2.18; S 2.76; V 3.83; Y 2.56
G21: A 1.86; K 4.05; P 2.03; R 1.75; V 3.39; W 2.02; Y 2.35
K22: C 3.7; F 2.03; G 2.1; M 2.73; N 3.08; Q 3.53; S 2.67; V 4.26; Y 3.71
L23: C 1.68; F 1.24; H 2.48; M 2.1; N 1.92; P 3.08; Q 2.91; R 3.08; W 1.03; Y 2.13
